Measured values from the supplement of paper PMC10724198.
± gives the standard deviation of the averaged measurements.

Legend:
Saccharomyces cerevisiae [1] = assay: protein stability index of tFT-peptide fusion (C-terminal peptide) (PSI (0-1 scale)); higher = more stable (slower turnover)
Experimental: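 MPS profiling in S. cerevisiae of the tFT-X12 degron library: putative degron peptides plus stable controls, 12 aa, fused to the C-terminus of a sfGFP-mCherry timer. Cells are FACS-sorted into 8 mCherry/sfGFP bins and deep-sequenced. PSI runs from 0 (unstable) to 1 (stable). Backgrounds are wild type, das1Δ and doa10Δ at 30 °C, and wild type, das1Δ, cdc34-1 and cdc53-1 at 37 °C; 2-3 technical replicates each.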

Saccharomyces cerevisiae [2] = assay: as above; settings: genetic background: wild type; temperature: 30 C
[3] = genetic background: cdc34-1, temperature: 37 C
[4] = genetic background: cdc53-1, temperature: 37 C
[5] = genetic background: das1 deletion, temperature: 30 C
[6] = genetic background: das1 deletion, temperature: 37 C
[7] = genetic background: doa10 deletion, temperature: 30 C
[8] = genetic background: wild type, temperature: 30 C
[9] = genetic background: wild type, temperature: 37 C
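Also: PSI is a weighted mean of sequencing reads over stability bins, variants kept only with over 10 reads, mCherry proximal and sfGFP distal, peptide attached via GGGS linker.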

| Sequence | protein stability index (Saccharomyces cerevisiae [1]; [3]) | protein stability index (Saccharomyces cerevisiae [1]; [4]) | protein stability index (Saccharomyces cerevisiae [1]; [5]) | protein stability index (Saccharomyces cerevisiae [1]; [6]) | protein stability index (Saccharomyces cerevisiae [1]; [7]) | protein stability index (Saccharomyces cerevisiae [1]; [8]) | protein stability index (Saccharomyces cerevisiae [1]; [9]) | protein stability index (Saccharomyces cerevisiae [2]) |
| --- | --- | --- | --- | --- | --- | --- | --- | --- |
| RPGRWFCFLYCV | 0.382 ± 0.063 | 0.4311 ± 0.002 | 0.418 ± 0.022 | 0.532 ± 0.011 | 0.163 ± 0.01 | 0.141 ± 0.017 | 0.233 ± 0.0093 | 0.185 ± 0.005 |
| RPIFAYRPLRFL | 0.656 ± 0.047 | 0.757 ± 0.001 | 0.654 ± 0.014 | 0.763 ± 0.023 | 0.212 ± 0.0076 | 0.231 ± 0.04 | 0.503 ± 0.015 | 0.342 ± 0.053 |
| RPNTFRTRAKAL | 0.636 ± 0.013 | 0.712 ± 0.019 | 0.619 ± 0.026 | 0.734 ± 0.017 | 0.145 ± 0.003 | 0.168 ± 0.039 | 0.333 ± 0.057 | 0.274 ± 0.081 |
| RRFKKTEIIKNN | 0.625 ± 0.024 | 0.765 ± 0.048 | 0.653 ± 0.022 | 0.7804 ± 0.0062 | 0.1324 ± 0.00038 | 0.143 ± 0.053 | 0.29 ± 0.048 | 0.247 ± 0.004 |
| RRVPVHIHFSLF | 0.627 ± 0.0066 | 0.707 ± 0.028 | 0.691 ± 0.014 | 0.732 ± 0.039 | 0.156 ± 0.0052 | 0.194 ± 0.021 | 0.393 ± 0.033 | 0.291 ± 0.03 |
| RSKKIFLTKKYS | 0.608 ± 0.053 | 0.734 ± 0.042 | 0.64 ± 0.035 | 0.701 ± 0.018 | 0.162 ± 0.0021 | 0.202 ± 0.025 | 0.395 ± 0.044 | 0.281 ± 0.075 |
| RSPIRYPPVVLS | 0.698 ± 0.038 | 0.753 ± 0.011 | 0.645 ± 0.021 | 0.7493 ± 0.0034 | 0.539 ± 0.021 | 0.539 ± 0.008 | 0.6895 ± 0.0015 | 0.518 ± 0.07 |
| RSPVVVFAVLLF | 0.438 ± 0.072 | 0.481 ± 0.034 | 0.341 ± 0.036 | 0.524 ± 0.016 | 0.35 ± 0.037 | 0.35 ± 0.029 | 0.505 ± 0.0057 | 0.423 ± 0.018 |
| RSRCVRAAVKVG | 0.612 ± 0.036 | 0.659 ± 0.025 | 0.569 ± 0.043 | 0.70656 ± 0.00048 | 0.177 ± 0.0018 | 0.216 ± 0.023 | 0.427 ± 0.026 | 0.324 ± 0.0059 |
| RSRRNRYSRKIA | 0.506 ± 0.024 | 0.659 ± 0.031 | 0.696 ± 0.043 | 0.6959 ± 0.0048 | 0.0765 ± 0.034 | 0.0787 ± 0.024 | 0.141 ± 0.03 | 0.184 ± 0.013 |
| RSWLCFIVFGLF | 0.368 ± 0.027 | 0.413 ± 0.03 | 0.317 ± 0.03 | 0.485 ± 0.015 | 0.238 ± 0.0067 | 0.234 ± 0.014 | 0.347 ± 0.011 | 0.313 ± 0.011 |
| RTSRPVRLFRIH | 0.753 ± 0.031 | 0.83846 ± 4.9e-05 | 0.656 ± 0.022 | 0.78 ± 0.009 | 0.26 ± 0.051 | 0.279 ± 0.046 | 0.448 ± 0.0097 | 0.402 ± 0.06 |
| RVCWLRAFGFLV | 0.666 ± 0.033 | 0.718 ± 0.019 | 0.587 ± 0.022 | 0.724 ± 0.024 | 0.258 ± 0.015 | 0.29 ± 0.051 | 0.57118 ± 0.00039 | 0.305 ± 0.028 |
| RVGALLAVTCPA | 0.435 ± 0.035 | 0.47214 ± 0.00033 | 0.308 ± 0.025 | 0.5127 ± 0.0033 | 0.262 ± 0.0067 | 0.302 ± 0.036 | 0.4766 ± 0.0026 | 0.446 ± 0.0093 |
| RVLILCLFFRWS | 0.2532 ± 0.00072 | 0.404 ± 0.0096 | 0.274 ± 0.033 | 0.435 ± 0.0084 | 0.257 ± 0.0049 | 0.279 ± 0.029 | 0.397 ± 0.016 | 0.347 ± 0.18 |
| RVVILFVFLVYV | 0.269 ± 0.013 | 0.342 ± 0.0015 | 0.258 ± 0.037 | 0.376 ± 0.0065 | 0.2526 ± 0.0011 | 0.25 ± 0.018 | 0.365 ± 0.014 | 0.3235 ± 0.0031 |
| RWCLWGTRVWVS | 0.439 ± 0.04 | 0.522 ± 0.037 | 0.444 ± 0.021 | 0.591 ± 0.029 | 0.103 ± 0.0031 | 0.111 ± 0.022 | 0.153 ± 0.03 | 0.147 ± 0.028 |
| RWELASKCRLCV | 0.563 ± 0.0077 | 0.6716 ± 0.0053 | 0.563 ± 0.021 | 0.7123 ± 0.0068 | 0.148 ± 0.011 | 0.16 ± 0.029 | 0.304 ± 0.061 | 0.296 ± 0.04 |
| RWRDGVAWVVVC | 0.254 ± 0.011 | 0.314 ± 0.024 | 0.289 ± 0.032 | 0.452 ± 0.0084 | 0.0897 ± 0.019 | 0.098 ± 0.0042 | 0.0954 ± 0.0098 | 0.143 ± 0.025 |
| SAWGQAFWCQMG | 0.712 ± 0.027 | 0.7859 ± 0.0057 | 0.648 ± 0.019 | 0.764 ± 0.016 | 0.233 ± 0.016 | 0.265 ± 0.014 | 0.555 ± 0.025 | 0.4071 ± 0.00098 |

| Sequence | protein stability index (Saccharomyces cerevisiae [1]; [3]) | protein stability index (Saccharomyces cerevisiae [1]; [4]) | protein stability index (Saccharomyces cerevisiae [1]; [5]) | protein stability index (Saccharomyces cerevisiae [1]; [6]) | protein stability index (Saccharomyces cerevisiae [1]; [7]) | protein stability index (Saccharomyces cerevisiae [1]; [8]) | protein stability index (Saccharomyces cerevisiae [1]; [9]) | protein stability index (Saccharomyces cerevisiae [2]) |
| --- | --- | --- | --- | --- | --- | --- | --- | --- |
| SCCGCGFGLLFC | 0.731 ± 0.011 | 0.807 ± 0.0017 | 0.631 ± 0.023 | 0.7812 ± 0.0002 | 0.643 ± 0.032 | 0.632 ± 0.016 | 0.7399 ± 0.0056 | 0.73 ± 0.018 |
| SCCIYVALCRWL | 0.473 ± 0.024 | 0.573 ± 0.0093 | 0.43 ± 0.024 | 0.5601 ± 0.0013 | 0.323 ± 0.0071 | 0.353 ± 0.035 | 0.48 ± 0.0084 | 0.382 ± 0.016 |
| SCGVYVVFVLVE | 0.0658 ± 0.027 | 0.133 ± 0.047 | 0.16 ± 0.042 | 0.294 ± 0.006 | 0.128 ± 0.026 | 0.152 ± 0.022 | 0.246 ± 0.0014 | 0.286 ± 0.16 |
| SCIVRTLVPCPS | 0.377 ± 0.0049 | 0.419 ± 0.034 | 0.253 ± 0.04 | 0.4761 ± 0.0022 | 0.224 ± 0.016 | 0.27 ± 0.029 | 0.445 ± 0.0094 | 0.373 ± 0.022 |
| SFCVLLQFCVLV | 0.412 ± 0.0095 | 0.432 ± 0.0084 | 0.351 ± 0.021 | 0.461 ± 0.011 | 0.336 ± 0.0041 | 0.3381 ± 0.0012 | 0.4258 ± 0.0029 | 0.0186 ± 0.026 |
| SFFCTRVLWVFQ | 0.534 ± 0.017 | 0.612 ± 0.025 | 0.539 ± 0.022 | 0.6285 ± 0.0029 | 0.0925 ± 0.004 | 0.0846 ± 0.027 | 0.149 ± 0.029 | 0.157 ± 0.023 |
| SFHTFFCPFFIL | 0.53 ± 0.051 | 0.6678 ± 0.0037 | 0.645 ± 0.038 | 0.713 ± 0.032 | 0.189 ± 0.0043 | 0.168 ± 0.023 | 0.288 ± 0.022 | 0.205 ± 0.024 |
| SGPNASRFYAPI | 0.672 ± 0.04 | 0.733 ± 0.0081 | 0.634 ± 0.013 | 0.72486 ± 8.5e-06 | 0.657 ± 0.034 | 0.656 ± 0.037 | 0.704 ± 0.011 | 0.696 ± 0.041 |
| SHPFIRSLVFLA | 0.43 ± 0.015 | 0.6729 ± 0.0026 | 0.629 ± 0.008 | 0.721 ± 0.02 | 0.0816 ± 0.008 | 0.0711 ± 0.0057 | 0.0908 ± 0.014 | 0.103 ± 0.037 |
| SHWSMQATLQLV | 0.617 ± 0.046 | 0.694 ± 0.025 | 0.568 ± 0.021 | 0.6866 ± 0.0046 | 0.443 ± 0.034 | 0.468 ± 0.011 | 0.601 ± 0.012 | 0.469 ± 0.016 |
| SIFFLVPLVFLS | 0.4422 ± 0.0014 | 0.532 ± 0.027 | 0.408 ± 0.035 | 0.584 ± 0.015 | 0.134 ± 0.0055 | 0.141 ± 0.019 | 0.216 ± 0.055 | 0.214 ± 0.043 |
| SIPVWTIELFAT | 0.555 ± 0.022 | 0.627 ± 0.012 | 0.428 ± 0.026 | 0.6153 ± 0.0042 | 0.335 ± 0.022 | 0.368 ± 0.035 | 0.537 ± 0.039 | 0.469 ± 0.037 |
| SLEACYCFVVLV | 0.187 ± 0.0034 | 0.199 ± 0.0087 | 0.214 ± 0.028 | 0.291 ± 0.0068 | 0.175 ± 0.019 | 0.186 ± 0.023 | 0.25 ± 0.015 | 0.2744 ± 0.00036 |
| SLFDQDCGGTVW | 0.756 ± 0.034 | 0.78 ± 0.013 | 0.686 ± 0.016 | 0.784 ± 0.014 | 0.655 ± 0.014 | 0.6706 ± 0.0058 | 0.804 ± 0.016 | 0.764 ± 0.027 |
| SLIFRVGKFKSL | 0.5892 ± 0.0014 | 0.6968 ± 0.0048 | 0.654 ± 0.019 | 0.738 ± 0.012 | 0.0628 ± 0.011 | 0.0746 ± 0.017 | 0.101 ± 0.0098 | 0.137 ± 0.021 |
| SLLLLSLCRFVG | 0.626 ± 0.022 | 0.686 ± 0.017 | 0.6 ± 0.012 | 0.702 ± 0.023 | 0.194 ± 0.02 | 0.232 ± 0.036 | 0.384 ± 0.013 | 0.372 ± 0.026 |
| SLPIFSGVASVR | 0.677 ± 0.014 | 0.737 ± 0.033 | 0.64 ± 0.028 | 0.778 ± 0.0013 | 0.642 ± 0.043 | 0.649 ± 0.035 | 0.728 ± 0.011 | 0.694 ± 0.022 |
| SLSCYSFFVLAL | 0.513 ± 0.035 | 0.543 ± 0.027 | 0.404 ± 0.03 | 0.534 ± 0.0054 | 0.391 ± 0.014 | 0.401 ± 0.025 | 0.51315 ± 0.00015 | 0.482 ± 0.0072 |
| SLVIVLPALIFL | 0.463 ± 0.026 | 0.545 ± 0.013 | 0.393 ± 0.013 | 0.569 ± 0.014 | 0.408 ± 0.0052 | 0.401 ± 0.024 | 0.522 ± 0.014 | 0.467 ± 0.035 |
